Patent US20130018176A1, “METHODS OF PRODUCING HYBRIDOMAS AND MONOCLONAL ANTIBODIES AND ANTIBODIES PRODUCED THEREBY” (AMGEN INC., priority 2007, published 2013)
Blank lines part the entries; values can stand above or below the molecule they belong to.

Assays:
[1] = target: T1, Ferroportin expressed inducibly in 293 cells (Homo sapiens, UniProt Q9NP59); experiment: In vitro hepcidin activity ferritin assay; type: cell-based; settings: 293 cells with tetracycline-inducible ferroportin; 1 μg/ml hepcidin; 17-20 hours
T1 construct: expressed in transfected cells; host or cells: 293 cells, tetracycline/doxycycline-inducible
T1 sequence (Q9NP59 1-571): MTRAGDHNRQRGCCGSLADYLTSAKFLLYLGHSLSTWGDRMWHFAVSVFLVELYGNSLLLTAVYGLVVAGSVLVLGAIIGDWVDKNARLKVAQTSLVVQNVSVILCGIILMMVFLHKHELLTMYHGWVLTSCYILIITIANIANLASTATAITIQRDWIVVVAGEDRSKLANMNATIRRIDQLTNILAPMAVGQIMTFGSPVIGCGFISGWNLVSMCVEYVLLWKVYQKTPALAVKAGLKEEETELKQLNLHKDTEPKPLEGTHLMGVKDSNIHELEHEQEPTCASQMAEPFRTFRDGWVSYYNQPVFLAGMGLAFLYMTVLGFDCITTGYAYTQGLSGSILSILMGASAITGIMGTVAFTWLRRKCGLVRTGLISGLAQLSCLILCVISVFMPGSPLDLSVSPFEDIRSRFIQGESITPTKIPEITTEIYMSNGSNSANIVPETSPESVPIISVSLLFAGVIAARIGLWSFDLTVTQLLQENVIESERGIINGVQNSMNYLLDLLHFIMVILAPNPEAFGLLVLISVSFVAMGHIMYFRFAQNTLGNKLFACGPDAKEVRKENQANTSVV
Method: Human hepcidin purified or produced according to Examples 1, 2, 3 and 4 was assayed for iron-regulating bioactivity in an in vitro cellular assay. […] The action of ferroportin can be reduced in a dose-dependent manner by hepcidin treatment.
293 cells expressing a tetracycline-inducible ferroportin gene were plated at 50,000 cells per well (70-80% density) in a 96 well BioCoat poly-D Lysine-coated plate in DMEM supplemented with 5% fetal bovine serum and a penicillin/streptomycin/glutamine supplement (Gibco BRL). After an overnight incubation at 37° C. with 5% CO2, the medium was replaced with assay medium (as above, but supplemented with 2.5 μg/ml doxycycline for […], 2.5 μg/ml iron citrate for iron supplemented wells and 1 μg/ml hepcidin for hepcidin treatment wells). The plate was further incubated for 17-20 hours as above before washing the wells in cold PBS and lysing in 120 ul of 1% Triton lysis buffer on ice for 15 minutes. 100 μl of lysates were used for ferritin analysis (Olympus AU400 clinical chemistry analyzer) and 10 μl for BCA protein assay (Pierce). Ferritin results were normalized for protein content.

human hepcidin = target: T2, human hepcidin (Homo sapiens, UniProt P81172); experiment: Neutralization of injected human hepcidin in mice (hypoferremic response); type: in vivo; settings: 25 μg i.p. with isotype control antibody; female C57BL/6 mice; two hours
T2 construct: The pro-region of the protein was enzymatically cleaved by incubation with Kex protease; made in house; host or cells: E. coli
T2 sequence (P81172 60-84 limits assumed): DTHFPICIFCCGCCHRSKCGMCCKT
Method: Activity of anti-human hepcidin antibodies was evaluated in vivo in mice that were administered human hepcidin in an amount sufficient to generate a hypoferremic response. On day 0, female C57BL/6 mice were injected subcutaneously with a murine monoclonal antibody (Ab2.7) directed against human hepcidin. Control mice received murine IgG1 as an isotypic control. At day 3, the mice received a single intraperitoneal injection of 25 μg E. coli-derived recombinant human Hepcidin (rhHepc). Serum iron levels were analyzed two hours later. […] Statistics represent ANOVA with a Dunnett's post-hoc test comparing all groups against the saline control.

[2] = target: T3, E. coli-derived human hepcidin (Homo sapiens, UniProt P81172); experiment: Biacore concurrent binding to hepcidin captured on antibody 1S1 surface (sandwich pairing); settings: 20 nM hepcidin on 1S1 surface, then 50 nM antibody
T3 construct: The pro-region of the protein was enzymatically cleaved by incubation with Kex protease; made in house; host or cells: E. coli
T3 sequence (P81172 60-84 limits assumed): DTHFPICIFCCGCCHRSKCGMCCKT
Method: Using Biacore analysis, a surface coated with antibody 1S1 was tested for the concurrent binding of hepcidin and another antibody (FIG. 28). Immobilization of anti-Hepc antibody 1S1 to the sensor chip surface was performed according to manufacturer's instructions using a continuous flow of 0.005% P-20/PBS buffer. Briefly, carboxyl groups on the sensor chip surfaces were activated by injecting 60 μL of a mixture containing 0.2 M N-ethyl-N′-(dimethylaminopropyl)carbodiimide (EDC) and 0.05 M N-hydroxysuccinimide (NHS). This was followed by injecting 1S1 diluted in 10 mM acetate, pH 4.0 at concentrations between 20 μg/mL. Excess reactive groups on the surfaces were deactivated by injecting 60 μL of 1 M ethanolamine. Final immobilized levels were 5,000-6,000 resonance units (RU) for the Ab 1S1 surface. A blank, mock-coupled reference surface was also prepared on the sensor chip. 20 nM E. coli-derived human hepcidin was injected over and bound to the 1S1 antibody surface. Then 50 nM antibody 2.7, 23F11, 26F11, and 1S1 were injected over the hepcidin/1S1 surface. After the antibody injection, the surfaces were regenerated by injecting 30 μL 10 mM HCl pH 2.0.

iron retention (ferritin) [1]: increase in iron retention
Molecule: hydrogen-DTHFPICIFCCGCCHRSKCGMCCKT-free acid [synthetic hepcidin]

iron retention (ferritin) [1]: increase in iron retention
Molecule: recombinant hepcidin: human hepcidin produced recombinantly according to Examples 2 and 3 (CHO- or E. coli-derived)

serum iron levels after hepcidin injection (human hepcidin): hypoferremia
Molecule: rhHepc: E. coli-derived recombinant human Hepcidin

iron retention (ferritin) [1]: increase in iron retention
Molecule: urinary hepcidin: Human hepcidin isolated from urine of sepsis patients

B1: Antibody 26F11: human antibody from Xenomouse, SEQ ID NOs: 187-196 (antibody)
heavy: QVQLVESGGGVVQPGRSLRLSCAASGFTFSNYGMHWVRQAPGKGLEWVAVIWYVGSNKYYADSVKGRFTISRDNSKNTLYLQMNSLRAEDTAVYYCARAQEGMAPDAFDIWGQGTMVTVSSASTKGPSVFPLAPCSRSTSESTAALGCLVKDYFPEPVTVSWNSGALTSGVHTFPAVLQSSGLYSLSSVVTVPSSNFGTQTYTCNVDHKPSNTKVDKTVERKCCVECPPCPAPPVAGPSVFLFPPKPKDTLMISRTPEVTCVVVDVSHEDPEVQFNWYVDGVEVHNAKTKPREEQFNSTFRVVSVLTVVHQDWLNGKEYKCKVSNKGLPAPIEKTISKTKGQPREPQVYTLPPSREEMTKNQVSLTCLVKGFYPSDIAVEWESNGQPENNYKTTPPMLDSDGSFFLYSKLTVDKSRWQQGNVFSCSVMHEALHNHYTQKSLSLSPGK
light: SYELTQPPSVSVSPGQTASITCSGDKMGERYACWYQQKPGQSPILVIYQDTKRPSGIPERFSGSNSGNTATLTISGTQAMDEADYYCQAWYSSTNVVFGGGTKLTVLGQPKAAPSVTLFPPSSEELQANKATLVCLISDFYPGAVTVAWKADSSPVKAGVETTTPSKQSNNKYAASSYLSLTPEQWKSHRSYSCQVTHEGSTVEKTVAPTECS
ability to bind hepcidin concurrently with 1S1 (sandwich pair) [2]: markedly lower ability to bind to hepcidin concurrently with 1S1
